T1: Human PTK7 Protein, His Tag (Acro Biosystems) (human, UniProt Q13308 31-704)
T1 construct: Bought His-tagged recombinant human PTK7; also called CCK4; Tyrosine-protein kinase-like 7
T1 sequence: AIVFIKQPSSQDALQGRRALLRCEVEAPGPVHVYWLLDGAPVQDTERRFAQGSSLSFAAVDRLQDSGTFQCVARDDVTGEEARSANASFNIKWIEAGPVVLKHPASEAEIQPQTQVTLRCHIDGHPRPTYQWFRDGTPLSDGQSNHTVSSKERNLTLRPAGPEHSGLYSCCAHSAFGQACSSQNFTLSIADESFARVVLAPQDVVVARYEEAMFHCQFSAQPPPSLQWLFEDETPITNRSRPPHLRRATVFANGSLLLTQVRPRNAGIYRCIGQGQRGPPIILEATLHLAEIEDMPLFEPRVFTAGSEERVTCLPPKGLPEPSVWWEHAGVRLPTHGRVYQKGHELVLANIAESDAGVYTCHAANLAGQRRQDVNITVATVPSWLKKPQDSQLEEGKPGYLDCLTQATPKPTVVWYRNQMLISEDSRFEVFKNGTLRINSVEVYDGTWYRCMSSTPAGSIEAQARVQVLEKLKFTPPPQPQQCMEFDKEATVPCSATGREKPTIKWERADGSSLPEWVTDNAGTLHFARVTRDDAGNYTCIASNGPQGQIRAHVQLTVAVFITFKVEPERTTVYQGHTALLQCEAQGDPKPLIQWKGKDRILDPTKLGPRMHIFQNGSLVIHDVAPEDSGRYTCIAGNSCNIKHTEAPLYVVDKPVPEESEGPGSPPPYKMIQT

T2: Human PTK7 Protein, His Tag, Acro Biosystems (human, UniProt Q13308 31-704)
T2 construct: Bought recombinant protein; also called CCK4; not shown: His tag
T2 sequence: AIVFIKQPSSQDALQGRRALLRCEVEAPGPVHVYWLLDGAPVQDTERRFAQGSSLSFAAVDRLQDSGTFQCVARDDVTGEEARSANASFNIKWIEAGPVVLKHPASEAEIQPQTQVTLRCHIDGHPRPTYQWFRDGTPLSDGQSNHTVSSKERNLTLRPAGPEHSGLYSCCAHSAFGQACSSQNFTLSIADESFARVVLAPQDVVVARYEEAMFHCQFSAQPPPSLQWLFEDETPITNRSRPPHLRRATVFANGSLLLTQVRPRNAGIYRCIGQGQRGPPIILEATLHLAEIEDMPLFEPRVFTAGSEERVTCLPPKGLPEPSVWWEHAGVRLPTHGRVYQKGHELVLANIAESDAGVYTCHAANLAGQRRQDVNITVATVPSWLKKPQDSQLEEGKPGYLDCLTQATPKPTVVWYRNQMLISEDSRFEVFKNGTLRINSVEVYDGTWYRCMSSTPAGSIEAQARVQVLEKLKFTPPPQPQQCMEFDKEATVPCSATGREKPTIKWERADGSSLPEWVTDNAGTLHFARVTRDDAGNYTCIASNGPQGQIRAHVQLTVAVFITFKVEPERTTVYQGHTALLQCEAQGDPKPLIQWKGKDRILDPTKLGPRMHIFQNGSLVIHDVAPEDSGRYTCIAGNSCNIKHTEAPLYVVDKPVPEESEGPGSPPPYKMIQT


molecular target: T1, Human PTK7 Protein, His Tag (Acro …); assay: BLI (Octet), antibody on anti-human Fc sensor, 50 nM PTK7; 1 = pH dependent binding

binding result	Binder
binds	MYT11026 (antibody, V domains shown, MYT9359 LC alanine variant; captured on anti-human Fc sensor) VH: EVQLVESGGGLVQPGGSLRLSCTASGFSLSSYAMGWVRQAPGKGLEWVGFINAGGNTYYANWAKGRFTISRDTSKNTVYLQMNSLRAEDTAVYFCARRYSRASGWYDLWGQGTLVTVSS VL: EIVMTQSPSTLSASVGDRVIITCQASQSISSYLAWYQQKPGKAPKLLIYAASTLASGVPSRFSGSGSGAEFTLTISSLQPDDFATYYCQSYSYSSGIDYGAVFGQGTKLTVL

molecular target: T2, Human PTK7 Protein, His Tag, Acro …; assay: BLI (Octet), antibody on anti-human Fc sensor, 50 nM PTK7 at pH 7.4, dissociation at pH 7.4 or 5.4; 1 = pH dependent binding relative to parent

binding result	Binder
binds	MYT10897 (antibody, V domains shown, MYT9345 variant, substitution at VH pos 52 (H2 03), no Ala mark) VH: EVQLVESGGGLVQPGGSLRLSCTASGFSLSNYVMNWVRQAPGKGLEWVGIIHSSGSTYYASWAKGRFTISRDTSKNTVYLQMNSLRAEDTAVYFCARGLYLWGQGTLVTVSS VL: EIVMTQSPSTLSASVGDRVIITCQSSQSVYNNNLLAWYQQKPGKAPKLLIYYTSNLASGVPSRFSGSGSGAEFTLTISSLQPDDFATYYCQGGYNGNIYAFGQGTKLTVL
binds	MYT10918 (antibody, V domains shown, MYT9345 variant, Ala at VH pos 52 (H2 03)) VH: EVQLVESGGGLVQPGGSLRLSCTASGFSLSNYVMNWVRQAPGKGLEWVGIIASSGSTYYASWAKGRFTISRDTSKNTVYLQMNSLRAEDTAVYFCARGLYLWGQGTLVTVSS VL: EIVMTQSPSTLSASVGDRVIITCQSSQSVYNNNLLAWYQQKPGKAPKLLIYYTSNLASGVPSRFSGSGSGAEFTLTISSLQPDDFATYYCQGGYNGNIYAFGQGTKLTVL
binds	MYT10896 (antibody, V domains shown, MYT9345 variant, His at VH pos 51 (H2 02)) VH: EVQLVESGGGLVQPGGSLRLSCTASGFSLSNYVMNWVRQAPGKGLEWVGIHDSSGSTYYASWAKGRFTISRDTSKNTVYLQMNSLRAEDTAVYFCARGLYLWGQGTLVTVSS VL: EIVMTQSPSTLSASVGDRVIITCQSSQSVYNNNLLAWYQQKPGKAPKLLIYYTSNLASGVPSRFSGSGSGAEFTLTISSLQPDDFATYYCQGGYNGNIYAFGQGTKLTVL
binds	MYT10903 (antibody, V domains shown, MYT9345 variant, His at VH pos 58 (H2 09)) VH: EVQLVESGGGLVQPGGSLRLSCTASGFSLSNYVMNWVRQAPGKGLEWVGIIDSSGSTHYASWAKGRFTISRDTSKNTVYLQMNSLRAEDTAVYFCARGLYLWGQGTLVTVSS VL: EIVMTQSPSTLSASVGDRVIITCQSSQSVYNNNLLAWYQQKPGKAPKLLIYYTSNLASGVPSRFSGSGSGAEFTLTISSLQPDDFATYYCQGGYNGNIYAFGQGTKLTVL
binds	MYT10889 (antibody, V domains shown, MYT9345 variant, His at VH pos 30 (H1 05)) VH: EVQLVESGGGLVQPGGSLRLSCTASGFSLHNYVMNWVRQAPGKGLEWVGIIDSSGSTYYASWAKGRFTISRDTSKNTVYLQMNSLRAEDTAVYFCARGLYLWGQGTLVTVSS VL: EIVMTQSPSTLSASVGDRVIITCQSSQSVYNNNLLAWYQQKPGKAPKLLIYYTSNLASGVPSRFSGSGSGAEFTLTISSLQPDDFATYYCQGGYNGNIYAFGQGTKLTVL
binds	MYT10928 (antibody, V domains shown, MYT9345 variant, His at VL pos 33 (L1 10)) VH: EVQLVESGGGLVQPGGSLRLSCTASGFSLSNYVMNWVRQAPGKGLEWVGIIDSSGSTYYASWAKGRFTISRDTSKNTVYLQMNSLRAEDTAVYFCARGLYLWGQGTLVTVSS VL: EIVMTQSPSTLSASVGDRVIITCQSSQSVYNNHLLAWYQQKPGKAPKLLIYYTSNLASGVPSRFSGSGSGAEFTLTISSLQPDDFATYYCQGGYNGNIYAFGQGTKLTVL
binds	MYT10916 (antibody, V domains shown, MYT9345 variant, His at VH pos 101 (H3 06)) VH: EVQLVESGGGLVQPGGSLRLSCTASGFSLSNYVMNWVRQAPGKGLEWVGIIDSSGSTYYASWAKGRFTISRDTSKNTVYLQMNSLRAEDTAVYFCARGLYHWGQGTLVTVSS VL: EIVMTQSPSTLSASVGDRVIITCQSSQSVYNNNLLAWYQQKPGKAPKLLIYYTSNLASGVPSRFSGSGSGAEFTLTISSLQPDDFATYYCQGGYNGNIYAFGQGTKLTVL
binds	MYT10920 (antibody, V domains shown, MYT9345 variant, His at VL pos 25 (L1 02)) VH: EVQLVESGGGLVQPGGSLRLSCTASGFSLSNYVMNWVRQAPGKGLEWVGIIDSSGSTYYASWAKGRFTISRDTSKNTVYLQMNSLRAEDTAVYFCARGLYLWGQGTLVTVSS VL: EIVMTQSPSTLSASVGDRVIITCQHSQSVYNNNLLAWYQQKPGKAPKLLIYYTSNLASGVPSRFSGSGSGAEFTLTISSLQPDDFATYYCQGGYNGNIYAFGQGTKLTVL
binds	MYT10911 (antibody, V domains shown, MYT9345 variant, His at VH pos 96 (H3 01)) VH: EVQLVESGGGLVQPGGSLRLSCTASGFSLSNYVMNWVRQAPGKGLEWVGIIDSSGSTYYASWAKGRFTISRDTSKNTVYLQMNSLRAEDTAVYFCHRGLYLWGQGTLVTVSS VL: EIVMTQSPSTLSASVGDRVIITCQSSQSVYNNNLLAWYQQKPGKAPKLLIYYTSNLASGVPSRFSGSGSGAEFTLTISSLQPDDFATYYCQGGYNGNIYAFGQGTKLTVL
binds	MYT10888 (antibody, V domains shown, MYT9345 variant, His at VH pos 29 (H1 04)) VH: EVQLVESGGGLVQPGGSLRLSCTASGFSHSNYVMNWVRQAPGKGLEWVGIIDSSGSTYYASWAKGRFTISRDTSKNTVYLQMNSLRAEDTAVYFCARGLYLWGQGTLVTVSS VL: EIVMTQSPSTLSASVGDRVIITCQSSQSVYNNNLLAWYQQKPGKAPKLLIYYTSNLASGVPSRFSGSGSGAEFTLTISSLQPDDFATYYCQGGYNGNIYAFGQGTKLTVL
binds	MYT10927 (antibody, V domains shown, MYT9345 variant, His at VL pos 32 (L1 09)) VH: EVQLVESGGGLVQPGGSLRLSCTASGFSLSNYVMNWVRQAPGKGLEWVGIIDSSGSTYYASWAKGRFTISRDTSKNTVYLQMNSLRAEDTAVYFCARGLYLWGQGTLVTVSS VL: EIVMTQSPSTLSASVGDRVIITCQSSQSVYNHNLLAWYQQKPGKAPKLLIYYTSNLASGVPSRFSGSGSGAEFTLTISSLQPDDFATYYCQGGYNGNIYAFGQGTKLTVL
binds	MYT10898 (antibody, V domains shown, MYT9345 variant, His at VH pos 53 (H2 04)) VH: EVQLVESGGGLVQPGGSLRLSCTASGFSLSNYVMNWVRQAPGKGLEWVGIIDHSGSTYYASWAKGRFTISRDTSKNTVYLQMNSLRAEDTAVYFCARGLYLWGQGTLVTVSS VL: EIVMTQSPSTLSASVGDRVIITCQSSQSVYNNNLLAWYQQKPGKAPKLLIYYTSNLASGVPSRFSGSGSGAEFTLTISSLQPDDFATYYCQGGYNGNIYAFGQGTKLTVL
binds	MYT10895 (antibody, V domains shown, MYT9345 variant, His at VH pos 50 (H2 01)) VH: EVQLVESGGGLVQPGGSLRLSCTASGFSLSNYVMNWVRQAPGKGLEWVGHIDSSGSTYYASWAKGRFTISRDTSKNTVYLQMNSLRAEDTAVYFCARGLYLWGQGTLVTVSS VL: EIVMTQSPSTLSASVGDRVIITCQSSQSVYNNNLLAWYQQKPGKAPKLLIYYTSNLASGVPSRFSGSGSGAEFTLTISSLQPDDFATYYCQGGYNGNIYAFGQGTKLTVL
binds	MYT10925 (antibody, V domains shown, MYT9345 variant, His at VL pos 30 (L1 07)) VH: EVQLVESGGGLVQPGGSLRLSCTASGFSLSNYVMNWVRQAPGKGLEWVGIIDSSGSTYYASWAKGRFTISRDTSKNTVYLQMNSLRAEDTAVYFCARGLYLWGQGTLVTVSS VL: EIVMTQSPSTLSASVGDRVIITCQSSQSVHNNNLLAWYQQKPGKAPKLLIYYTSNLASGVPSRFSGSGSGAEFTLTISSLQPDDFATYYCQGGYNGNIYAFGQGTKLTVL
binds	MYT10930 (antibody, V domains shown, MYT9345 variant, His at VL pos 35 (L1 12)) VH: EVQLVESGGGLVQPGGSLRLSCTASGFSLSNYVMNWVRQAPGKGLEWVGIIDSSGSTYYASWAKGRFTISRDTSKNTVYLQMNSLRAEDTAVYFCARGLYLWGQGTLVTVSS VL: EIVMTQSPSTLSASVGDRVIITCQSSQSVYNNNLHAWYQQKPGKAPKLLIYYTSNLASGVPSRFSGSGSGAEFTLTISSLQPDDFATYYCQGGYNGNIYAFGQGTKLTVL
binds	MYT10891 (antibody, V domains shown, MYT9345 variant, His at VH pos 32 (H1 07)) VH: EVQLVESGGGLVQPGGSLRLSCTASGFSLSNHVMNWVRQAPGKGLEWVGIIDSSGSTYYASWAKGRFTISRDTSKNTVYLQMNSLRAEDTAVYFCARGLYLWGQGTLVTVSS VL: EIVMTQSPSTLSASVGDRVIITCQSSQSVYNNNLLAWYQQKPGKAPKLLIYYTSNLASGVPSRFSGSGSGAEFTLTISSLQPDDFATYYCQGGYNGNIYAFGQGTKLTVL
binds	MYT10926 (antibody, V domains shown, MYT9345 variant, His at VL pos 31 (L1 08)) VH: EVQLVESGGGLVQPGGSLRLSCTASGFSLSNYVMNWVRQAPGKGLEWVGIIDSSGSTYYASWAKGRFTISRDTSKNTVYLQMNSLRAEDTAVYFCARGLYLWGQGTLVTVSS VL: EIVMTQSPSTLSASVGDRVIITCQSSQSVYHNNLLAWYQQKPGKAPKLLIYYTSNLASGVPSRFSGSGSGAEFTLTISSLQPDDFATYYCQGGYNGNIYAFGQGTKLTVL
binds	MYT10905 (antibody, V domains shown, MYT9345 variant, His at VH pos 60 (H2 11)) VH: EVQLVESGGGLVQPGGSLRLSCTASGFSLSNYVMNWVRQAPGKGLEWVGIIDSSGSTYYHSWAKGRFTISRDTSKNTVYLQMNSLRAEDTAVYFCARGLYLWGQGTLVTVSS VL: EIVMTQSPSTLSASVGDRVIITCQSSQSVYNNNLLAWYQQKPGKAPKLLIYYTSNLASGVPSRFSGSGSGAEFTLTISSLQPDDFATYYCQGGYNGNIYAFGQGTKLTVL

From patent US20260209386A1 (MYTHIC THERAPEUTICS, published 2026)
